# Source: the RNAGym collection of RNA variant scans (doi:10.1093/nar/gkz1192)
# B1: CPEB3 Ribozyme (parent)
# chain: UAACAGGGGGCCACAGCAGAAGCGUUCACGUCGCAGCCCCUGUCAGAUUCUGGUGAAUCUGCGAAUUCUGCUGUAUAUCUC
# Variants of: B1
# Assay: self-cleavage, relative activity (ratio to wild type); higher = more cleavage; in vitro, sequencing
# Method in brief: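 For each CPEB3 ribozyme variant, relative activity is its cleaved/total read fraction divided by the unmutated ribozyme's. Barcoded error-prone PCR libraries were transcribed by T7 RNA polymerase (5 hours, 37°C) and held in DNase I for 15 min before an EDTA stop, with cleavage occurring throughout. Template-switching reverse transcription and Illumina sequencing were used to read the RNAs. A 5-read minimum applied, and results are the mean of three batches.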
row,Variant,self-cleavage
1,U43C G63A,0.47
2,C44A A64G,0.49
3,C44A A64C,0.18
4,U43G U80C,0.18
5,C44A U60C,0.17
6,U43C G61A,0.22
7,C44U G52U,0.46
8,A45G U66C,0.34
9,A45G U66A,0.41
10,A45C U74G,0.68
11,A45C U74C,0.7
12,U43G U54A,0.26
13,U43G U54C,0.45
14,U43G U72A,0.1
15,U43G U72C,0.33
16,U43G U72G,0.17
17,C44U G61C,0.2
18,A45C U54A,0.45
19,A45C U54C,0.4
20,A45C U80A,0.48
21,A45C U80C,0.4

row,Variant,self-cleavage
1,A45G U58G,0.18
2,A45G U58A,0.31
3,A45G U58C,0.31
4,U43C G46U,0.16
5,U43C G46A,0.22
6,U43C G46C,0.16
7,A45G C71U,0.65
8,A45G C71G,0.3
9,A45G A56C,0.39
10,A45G A56U,0.4
11,A45G A56G,0.6
12,U43G A57G,0.21
13,A45G C81U,1.07
14,A45G C81A,1.02
15,U43C U49A,0.26
16,U43C U49C,0.24
17,U43C U49G,0.26
18,C44G U74C,1.02
19,C44G U74A,1.18
20,C44U A45C,0.46
21,C44U A45G,0.41

row,Variant,self-cleavage
1,C44G U49C,0.19
2,C44G U49A,0.23
3,U43G A64U,0.47
4,U43G A64G,0.46
5,A45G G55A,0.43
6,A45G G55C,0.67
7,A45G G55U,0.4
8,A45C G63C,0.52
9,A45C G63A,0.49
10,C44U C79U,0.16
11,U43G A77G,0.22
12,U43G U78C,0.28
13,C44A U67C,0.16
14,C44G U76C,0.58
15,C44G U48C,0.1
16,U43C U72C,0.76
17,U43C U72G,0.59
18,U43C U72A,0.4
19,A45C A47G,0.17
20,U43C U69A,0.32
21,U43C U69G,0.43

row,Variant,self-cleavage
1,U43C U69C,0.31
2,A45C C68U,0.28
3,A45G A65U,0.27
4,A45G A65G,0.35
5,A45G A65C,0.24
6,A45G C59G,0.2
7,A45G C59A,0.63
8,A45G C59U,0.62
9,U43C U67C,0.2
10,U43C U67A,0.36
11,U43C C71A,0.36
12,U43C C71G,0.28
13,U43C C71U,0.36
14,A45C A65U,0.12
15,A45C A65G,0.42
16,A45G C68U,0.88
17,A45G C68A,0.18
18,U43G U74A,0.11
19,U43G U74G,0.36
20,U43C G52A,0.92
